Laboratory results taken from patent US20250276018A1 (AFFYIMMUNE THERAPEUTICS, published 2025).
Like-named read-outs stand apart in the source and are kept apart here. Each block holds one binder with its values, some of them ahead of it.

Experiments:
[1] = target: T1, AF647 labeled c-met protein (UniProt P08581 25-932, limits assumed, labeled with AlexaFluor 647 (AF647)); experiment: flow cytometry, AF647-labeled c-met protein on CAR-T cells; lower end tied to Affy7-L9A by Table 2
T1 construct: Soluble labeled c-met protein titrated on CAR-T cells
T1 sequence (P08581 25-932 limits assumed): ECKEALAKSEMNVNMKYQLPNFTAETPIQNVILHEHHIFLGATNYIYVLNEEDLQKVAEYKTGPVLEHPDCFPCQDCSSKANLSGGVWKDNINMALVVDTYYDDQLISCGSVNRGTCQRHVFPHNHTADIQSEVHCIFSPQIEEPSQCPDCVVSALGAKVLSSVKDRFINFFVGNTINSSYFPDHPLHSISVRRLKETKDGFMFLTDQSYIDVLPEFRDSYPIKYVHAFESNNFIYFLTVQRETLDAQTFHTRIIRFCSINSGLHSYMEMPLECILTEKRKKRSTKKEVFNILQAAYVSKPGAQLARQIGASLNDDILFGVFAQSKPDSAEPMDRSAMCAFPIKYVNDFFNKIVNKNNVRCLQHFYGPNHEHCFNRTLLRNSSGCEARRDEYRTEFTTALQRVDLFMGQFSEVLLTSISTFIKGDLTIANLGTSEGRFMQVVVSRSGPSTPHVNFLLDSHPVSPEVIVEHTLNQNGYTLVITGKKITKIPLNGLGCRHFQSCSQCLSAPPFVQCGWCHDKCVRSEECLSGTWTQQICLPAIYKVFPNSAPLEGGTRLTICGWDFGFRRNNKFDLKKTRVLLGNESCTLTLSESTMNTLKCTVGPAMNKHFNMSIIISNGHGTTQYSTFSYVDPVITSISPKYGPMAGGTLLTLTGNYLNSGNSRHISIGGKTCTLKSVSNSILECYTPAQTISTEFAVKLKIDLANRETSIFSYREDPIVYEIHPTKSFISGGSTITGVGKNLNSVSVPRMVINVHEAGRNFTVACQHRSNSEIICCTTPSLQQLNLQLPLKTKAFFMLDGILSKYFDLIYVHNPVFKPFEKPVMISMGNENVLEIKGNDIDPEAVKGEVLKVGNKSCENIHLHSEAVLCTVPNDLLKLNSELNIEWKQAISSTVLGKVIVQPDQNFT
Experimental: (§1) Cells were stained on ice for 30 mins and then washed with PBS. After washing, residually bound protein on CAR T cells were measured on a flow cytometer (Beckman, CytoFLEX®). The resulting binding data was fit using a non-linear regression analysis on GraphPad Prism to calculate half effective dose concentration (EC₅₀) values. The results of this analysis are shown in FIGS. 2-5 and Tables 2-5 below.

[2] = target: T1, AF647 labeled c-met protein; experiment: flow cytometry, EC50 relative to parental Affy7 CAR-T cells (Round 1)
Experimental: (§2) Binding of labeled c-MET to CAR-T cells expressing the affinity tuned c-MET scFvs was evaluated by transducing lentivirus anti-c-MET CAR particles into human T cells to form c-MET CAR-T cells incubated with AF647-labeled c-MET. […] Following a 48 hr. incubation at 37° C., the culture media was brought up to […] per well and incubated at 37° C. for 10 days.
as §1

[3] = target: T2, c-MET on human target cells (human, UniProt P08581 25-1390); experiment: cell-based or functional assay
T2 sequence (P08581 25-1390): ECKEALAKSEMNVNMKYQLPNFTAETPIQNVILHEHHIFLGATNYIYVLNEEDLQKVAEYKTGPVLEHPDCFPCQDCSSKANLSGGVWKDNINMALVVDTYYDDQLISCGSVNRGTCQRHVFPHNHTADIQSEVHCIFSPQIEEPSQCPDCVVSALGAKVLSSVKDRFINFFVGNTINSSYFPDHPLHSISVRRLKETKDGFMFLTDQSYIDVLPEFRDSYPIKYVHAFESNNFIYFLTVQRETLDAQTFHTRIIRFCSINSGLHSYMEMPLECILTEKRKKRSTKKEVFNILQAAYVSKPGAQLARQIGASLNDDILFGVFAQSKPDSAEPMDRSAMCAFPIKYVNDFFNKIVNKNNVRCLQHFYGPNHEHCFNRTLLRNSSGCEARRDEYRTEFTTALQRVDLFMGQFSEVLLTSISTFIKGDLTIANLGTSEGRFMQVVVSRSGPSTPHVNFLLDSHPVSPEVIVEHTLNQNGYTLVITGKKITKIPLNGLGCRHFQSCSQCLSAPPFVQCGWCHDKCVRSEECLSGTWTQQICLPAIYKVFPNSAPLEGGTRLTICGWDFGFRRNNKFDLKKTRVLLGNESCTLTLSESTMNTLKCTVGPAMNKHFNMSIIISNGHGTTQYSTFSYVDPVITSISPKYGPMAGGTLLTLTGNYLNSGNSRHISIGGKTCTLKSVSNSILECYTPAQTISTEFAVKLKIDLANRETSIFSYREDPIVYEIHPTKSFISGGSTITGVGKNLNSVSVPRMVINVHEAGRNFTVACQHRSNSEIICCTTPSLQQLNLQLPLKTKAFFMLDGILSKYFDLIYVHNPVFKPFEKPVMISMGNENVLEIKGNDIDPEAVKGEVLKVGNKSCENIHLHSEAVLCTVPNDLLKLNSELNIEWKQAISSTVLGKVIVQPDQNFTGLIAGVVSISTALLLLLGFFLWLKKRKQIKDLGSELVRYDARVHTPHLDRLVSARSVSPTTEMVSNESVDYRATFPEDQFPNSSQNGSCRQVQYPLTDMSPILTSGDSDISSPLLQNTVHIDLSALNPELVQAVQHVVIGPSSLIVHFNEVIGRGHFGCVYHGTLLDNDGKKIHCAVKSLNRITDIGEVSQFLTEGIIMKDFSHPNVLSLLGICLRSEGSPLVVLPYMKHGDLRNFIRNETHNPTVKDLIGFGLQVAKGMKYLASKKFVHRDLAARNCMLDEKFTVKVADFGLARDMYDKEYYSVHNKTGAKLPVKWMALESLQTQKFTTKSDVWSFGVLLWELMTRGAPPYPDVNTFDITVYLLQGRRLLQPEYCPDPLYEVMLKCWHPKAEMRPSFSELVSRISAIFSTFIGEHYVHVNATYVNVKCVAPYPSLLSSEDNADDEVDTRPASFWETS

[4] = target: T2, c-MET on human target cells; experiment: cell-based or functional assay; remark: listed apart in the source
[5] = target: T1, AF647 labeled c-met protein; experiment: flow cytometry, AF647-labeled c-met protein titrated on CAR-T cells (Round 1)
Experimental: as §2, §1

[6] = target: T2, c-MET on human target cells; experiment: cell-based or functional assay; remark: listed apart in the source
[7] = target: T2, c-MET on human target cells; experiment: cell-based or functional assay; remark: listed apart in the source
[8] = target: T2, c-MET on human target cells; experiment: cell-based or functional assay; remark: listed apart in the source
[9] = target: T2, c-MET on human target cells; experiment: cell-based or functional assay; remark: listed apart in the source
[10] = target: T2, c-MET on human target cells; experiment: cell-based or functional assay; remark: listed apart in the source
[11] = target: T2, c-MET on human target cells; experiment: cell-based or functional assay; remark: listed apart in the source
[12] = target: T2, c-MET on human target cells; experiment: cell-based or functional assay; remark: listed apart in the source
[13] = target: T2, c-MET on human target cells; experiment: cell-based or functional assay; remark: listed apart in the source
[14] = target: T2, c-MET on human target cells; experiment: cell-based or functional assay; remark: listed apart in the source
[15] = target: T1, AF647 labeled c-met protein; experiment: flow cytometry, EC50 relative to parental Affy6 CAR-T cells (Round 1)
Experimental: as §2, §1

[16] = target: T2, c-MET on human target cells; experiment: cell-based or functional assay; remark: listed apart in the source

fold reduction in affinity relative to the parental-expressing CARs [1]: 20 to 7640 fold
Fold Change [2]: 20 fold
EC50 [5]: 1 µM
B1: Affy7-L9A CAR (other)
chain: GSEQKLISEEDLGSQVQLQQSGPELVRPGASVKMSCRASGYTFTSYWLHWVKQRPGQGLEWIGMIDPSNSDTRFNPNFKDKATLNVDRSSNTAYMLLSSLTSADSAVYYCATYGSYVSPADYWGQGTSVTVSSGGGGSGGGGSGGGGSDIMMSQSPSSLTVSVGEKVTVSCKSSQSLLYTSSQKNYLAWYQQKPGQSPKLLIYWASTRESGVPDRFTGSGSGTDFTLTITSVKADDLAVYYCQQYYAYPWTFGGGTKLEIKRASTTTPAPRPPTPAPTIASQPLSLRPEACRPAAGGAVHTRGLDFACDFWVLVVVGGVLACYSLLVTVAFIIFWVRSKRSRLLHSDYMNMTPRRPGPTRKHYQPYAPPRDFAAYRSLRVKFSRSADAPAYQQGQNQLYNELNLGRREEYDVLDKRRGRDPEMGGKPRRKNPQEGLYNELQKDKMAEAYSEIGMKGERRRGKGHDGLYQGLSTATKDTYDALHMQALPPR
notes: CAR on transduced human T cells; L to A in HC CDR3; P2A remnant not included; also called MycT-Affy7-L9A CAR-SSTR2
cytotoxicity, Normal Human Lung Cells, 8 hrs [3]: 7.5
cytotoxicity, Normal Human Lung Cells, 16 hrs [3]: 20.9
cytotoxicity, Normal Human Lung Cells, 24 hrs [3]: 38.3
cytotoxicity, Normal Human Lung Cells, 32 hrs [3]: 46.4
cytotoxicity, Normal Human Lung Cells, 40 hrs [3]: 50.7
cytotoxicity, Normal Human Lung Cells, 47 hrs [3]: 45.3
cytotoxicity, Normal Human Liver Cells, 8 hrs [4]: 13.7
cytotoxicity, Normal Human Liver Cells, 16 hrs [4]: 24.5
cytotoxicity, Normal Human Liver Cells, 24 hrs [4]: 32.8
cytotoxicity, Normal Human Liver Cells, 32 hrs [4]: 37.9
cytotoxicity, Normal Human Liver Cells, 40 hrs [4]: 50.1
cytotoxicity, Normal Human Liver Cells, 48 hrs [4]: 60
cytotoxicity, Normal Human Kidney Cells, 8 hrs [6]: 12.9
cytotoxicity, Normal Human Kidney Cells, 16 hrs [6]: 23.9
cytotoxicity, Normal Human Kidney Cells, 24 hrs [6]: 30.7
cytotoxicity, Normal Human Kidney Cells, 32 hrs [6]: 38.8
cytotoxicity, Normal Human Kidney Cells, 40 hrs [6]: 46.9
cytotoxicity, Normal Human Kidney Cells, 48 hrs [6]: 54.7
cytotoxicity, Normal Human Colon Cells, 8 hrs [7]: 12.1
cytotoxicity, Normal Human Colon Cells, 16 hrs [7]: 25
cytotoxicity, Normal Human Colon Cells, 24 hrs [7]: 27.2
cytotoxicity, Normal Human Colon Cells, 32 hrs [7]: 38.2
cytotoxicity, Normal Human Colon Cells, 40 hrs [7]: 48.5
cytotoxicity, Normal Human Colon Cells, 48 hrs [7]: 49.6

Fold Change [2]: 66 fold
EC50 [5]: 3.3 µM
B2: Affy7-Y6A CAR (other)
chain: GSEQKLISEEDLGSQVQLQQSGPELVRPGASVKMSCRASGYTFTSYWLHWVKQRPGQGLEWIGMIDPSNSDTRFNPNFKDKATLNVDRSSNTAYMLLSSLTSADSAVYYCATAGSYVSPLDYWGQGTSVTVSSGGGGSGGGGSGGGGSDIMMSQSPSSLTVSVGEKVTVSCKSSQSLLYTSSQKNYLAWYQQKPGQSPKLLIYWASTRESGVPDRFTGSGSGTDFTLTITSVKADDLAVYYCQQYYAYPWTFGGGTKLEIKRASTTTPAPRPPTPAPTIASQPLSLRPEACRPAAGGAVHTRGLDFACDFWVLVVVGGVLACYSLLVTVAFIIFWVRSKRSRLLHSDYMNMTPRRPGPTRKHYQPYAPPRDFAAYRSLRVKFSRSADAPAYQQGQNQLYNELNLGRREEYDVLDKRRGRDPEMGGKPRRKNPQEGLYNELQKDKMAEAYSEIGMKGERRRGKGHDGLYQGLSTATKDTYDALHMQALPPR
notes: CAR on transduced human T cells; Y to A in HC CDR3; P2A remnant not included; also called Affy-Y6A; MycT-Affy7-Y6A CAR-SSTR2
percent cytotoxicity, H1993, 24 hrs [8]: 85.7%
percent cytotoxicity, H1993, 48 hrs [8]: 96.9%
percent cytotoxicity, H1993, 72 hrs [8]: 99.2%
cytotoxicity, Normal Human Lung Cells, 8 hrs [9]: 30.6
cytotoxicity, Normal Human Lung Cells, 16 hrs [9]: 32.6
cytotoxicity, Normal Human Lung Cells, 24 hrs [9]: 40.1
cytotoxicity, Normal Human Lung Cells, 32 hrs [9]: 48.3
cytotoxicity, Normal Human Lung Cells, 40 hrs [9]: 56.5
cytotoxicity, Normal Human Lung Cells, 48 hrs [9]: 64
cytotoxicity, Normal Human Colon Cells, 8 hrs [10]: 26.5
cytotoxicity, Normal Human Colon Cells, 16 hrs [10]: 36.3
cytotoxicity, Normal Human Colon Cells, 24 hrs [10]: 42.5
cytotoxicity, Normal Human Colon Cells, 32 hrs [10]: 51.5
cytotoxicity, Normal Human Colon Cells, 40 hrs [10]: 62.7
cytotoxicity, Normal Human Colon Cells, 48 hrs [10]: 70.7
cytotoxicity, Normal Human Lung Cells, 8 hrs [3]: 13.1
cytotoxicity, Normal Human Lung Cells, 16 hrs [3]: 31.3
cytotoxicity, Normal Human Lung Cells, 24 hrs [3]: 47.6
cytotoxicity, Normal Human Lung Cells, 32 hrs [3]: 50
cytotoxicity, Normal Human Lung Cells, 40 hrs [3]: 53
cytotoxicity, Normal Human Lung Cells, 47 hrs [3]: 52.1
cytotoxicity, Normal Human Liver Cells, 8 hrs [4]: 14.2
cytotoxicity, Normal Human Liver Cells, 16 hrs [4]: 26.3
cytotoxicity, Normal Human Liver Cells, 24 hrs [4]: 33.1
cytotoxicity, Normal Human Liver Cells, 32 hrs [4]: 40.1
cytotoxicity, Normal Human Liver Cells, 40 hrs [4]: 55
cytotoxicity, Normal Human Liver Cells, 48 hrs [4]: 65
cytotoxicity, Normal Human Kidney Cells, 8 hrs [6]: 15.8
cytotoxicity, Normal Human Kidney Cells, 16 hrs [6]: 27.1
cytotoxicity, Normal Human Kidney Cells, 24 hrs [6]: 29.4
cytotoxicity, Normal Human Kidney Cells, 32 hrs [6]: 31.1
cytotoxicity, Normal Human Kidney Cells, 40 hrs [6]: 42.6
cytotoxicity, Normal Human Kidney Cells, 48 hrs [6]: 54.7
cytotoxicity, Normal Human Kidney Cells, 8 hrs [11]: 29.2
cytotoxicity, Normal Human Kidney Cells, 16 hrs [11]: 39.3
cytotoxicity, Normal Human Kidney Cells, 24 hrs [11]: 48.9
cytotoxicity, Normal Human Kidney Cells, 32 hrs [11]: 53.9
cytotoxicity, Normal Human Kidney Cells, 40 hrs [11]: 60.5
cytotoxicity, Normal Human Kidney Cells, 48 hrs [11]: 65.9
percent cytotoxicity, Hs746T, 24 hrs [12]: 88.3%
percent cytotoxicity, Hs746T, 48 hrs [12]: 98.4%
percent cytotoxicity, Hs746T, 72 hrs [12]: 98.8%
cytotoxicity, Normal Human Liver Cells, 8 hrs [13]: 19.3
cytotoxicity, Normal Human Liver Cells, 16 hrs [13]: 29.8
cytotoxicity, Normal Human Liver Cells, 24 hrs [13]: 44.8
cytotoxicity, Normal Human Liver Cells, 32 hrs [13]: 53.9
cytotoxicity, Normal Human Liver Cells, 40 hrs [13]: 57.5
cytotoxicity, Normal Human Liver Cells, 48 hrs [13]: 58.5
cytotoxicity, Normal Human Colon Cells, 8 hrs [7]: 13.1
cytotoxicity, Normal Human Colon Cells, 16 hrs [7]: 25
cytotoxicity, Normal Human Colon Cells, 24 hrs [7]: 25.6
cytotoxicity, Normal Human Colon Cells, 32 hrs [7]: 35.8
cytotoxicity, Normal Human Colon Cells, 40 hrs [7]: 45.4
cytotoxicity, Normal Human Colon Cells, 48 hrs [7]: 45.6
percent cytotoxicity, SNU638, 24 hrs [14]: 79.2%
percent cytotoxicity, SNU638, 48 hrs [14]: 93.5%
percent cytotoxicity, SNU638, 72 hrs [14]: 98.7%

Fold Change [15]: 956 fold
EC50 [5]: 20.9 µM
B3: Affy6-I3A CAR (other)
chain: GSEQKLISEEDLGSQVQLVQSGAEVKKPGASVKVSCKASGYIFTAYTMHWVRQAPGQGLEWMGWIKPNNGLANYAQKFQGRVTMTRDTSISTAYMELSRLRSDDTAVYYCARSEATTEFDYWGQGTLVTVSSGGGGSGGGGSGGGGSDIVLTQSPDSLAVSLGERATINCKSSESVDSYANSFMHWYQQKPGQPPKLLIYRASTRESGVPDRFSGSGSRTDFTLTISSLQAEDVAVYYCQQSKEDPLTFGGGTKVEIKASTTTPAPRPPTPAPTIASQPLSLRPEACRPAAGGAVHTRGLDFACDFWVLVVVGGVLACYSLLVTVAFIIFWVRSKRSRLLHSDYMNMTPRRPGPTRKHYQPYAPPRDFAAYRSLRVKFSRSADAPAYQQGQNQLYNELNLGRREEYDVLDKRRGRDPEMGGKPRRKNPQEGLYNELQKDKMAEAYSEIGMKGERRRGKGHDGLYQGLSTATKDTYDALHMQALPPR
notes: CAR on transduced human T cells; I to A in HC CDR3; P2A remnant not included; also called MycTAffy6-I3A CAR-SSTR2
percent cytotoxicity, H1993, 24 hrs [16]: 73.1%
percent cytotoxicity, H1993, 48 hrs [16]: 95.3%
percent cytotoxicity, H1993, 72 hrs [16]: 98.9%
